Earlier results, collected in paper PMC4203807.

Biological target: clathrin heavy chain N-terminal domain (Rattus norvegicus) (UniProt P11442)
Sequence of UniProt P11442 (P11442 1-363): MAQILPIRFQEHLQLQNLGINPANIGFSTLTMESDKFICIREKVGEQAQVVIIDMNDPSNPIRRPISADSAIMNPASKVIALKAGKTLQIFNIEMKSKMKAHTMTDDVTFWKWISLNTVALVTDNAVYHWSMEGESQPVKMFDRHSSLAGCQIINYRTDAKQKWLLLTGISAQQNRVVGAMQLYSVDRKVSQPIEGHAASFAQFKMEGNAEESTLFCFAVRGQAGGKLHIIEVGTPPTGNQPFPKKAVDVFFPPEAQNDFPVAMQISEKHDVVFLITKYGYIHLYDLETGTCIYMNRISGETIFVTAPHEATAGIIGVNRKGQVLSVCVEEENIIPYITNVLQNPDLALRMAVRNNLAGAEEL

Substance: AP180 623-680 (from UniProt Q05140)
- Kd: 250 µM
